System: E. coli strain DH5α
Assay: Growth (OD600) in M63 broth containing glyphosate of cells carrying pAX299 (grg8)
Type: cell-based
Settings: for OD600: 37° C., about 46 hours, means ± standard deviations, triplicate cultures
Protocol: The grg8 open reading frame (ORF) was amplified by PCR, cloned into the plasmid vector pCR-Blunt-II from Invitrogen, and transformed into E. coli strain DH5α. Plasmid DNA was prepared and the presence and orientation of the inserts were determined by restriction digest. One clone contained the ORF in the forward orientation with respect to the lac promoter in the vector. This plasmid was named pAX299. The insert was sequenced and the plasmid was tested for the ability to confer resistance to glyphosate.
pAX299 was tested for the ability to grow on M63 medium in the presence of glyphosate using cells containing empty vector as a control. The plasmid pAX296 in host strain DH5α was used as a negative control. This plasmid contains a fragment of tobacco genomic DNA cloned into the vector pCR-Blunt-II. Starter cultures of the two strains were grown in M63 broth with 50 μg/ml kanamycin to maintain the plasmid. The starter cultures were diluted to approximately equal cell densities, as determined by measuring OD600, then diluted 1 to 200 into 3 ml of M63 broth containing 0 to 200 mM glyphosate. Triplicate 3 ml cultures of each strain in each concentration were grown. Cultures were grown at 37° C. with constant shaking. After about 46 hours, 0.3 ml aliquots were withdrawn and the OD600 was measured. Values represent means + standard deviations.

B1: grg8: Glyphosate resistance gene from strain ATX4145 encoding a novel non-Class II EPSP synthase (SEQ ID NO:3); ORF carried in plasmid pAX299 (protein, listed as Brevundomonas vesicularis)
chain: MMMGRAKLTIIPPGKPLTGRAMPPGSKSITNRALLLAGLAKGTSRLTGALKSDDTRYMAEALRAMGVTIDEPDDTTFIVKGSGKLQPPAAPLFLGNAGTATRFLTAAAALVDGKVIVDGDAHMRKRPIGPLVDALRSLGIDASAETGCPPVTINGTGRFEASRVQIDGGLSSQYVSALLMMAAGGDRAVDVELLGEHIGALGYIDLTVAAMRAFGAKVERVSPVAWRVEPTGYHAADFVIEPDASAATYLWAAEVLSGGKIDLGTPAEQFSQPDAKAYDLISKFPHLPAVIDGSQMQDAIPTLAVLAAFNEMPVRFVGIENLRVKECDRIRALSSGLSRIVPNLGTEEGDDLIIASDPSLAGKILTAEIDSFADHRIAMSFALAGLKIGGITILDPDCVAKTFPSYWNVLSSLGVAYED
0 mM glyphosate
  OD600: 1.18 ± 0.029
0 to 200 mM glyphosate
  Glyphosate resistance (conclusion from Table 1): confers resistance to high levels of glyphosate
10 mM glyphosate
  OD600: 1.15 ± 0.018
20 mM glyphosate
  OD600: 1.10 ± 0.043
50 mM glyphosate
  OD600: 1.20 ± 0.037
100 mM glyphosate
  OD600: 1.31 ± 0.024
200 mM glyphosate
  OD600: 0.05 ± 0.004

Reference: US7534937B2, “Genes conferring herbicide resistance” (Athenix Corporation, priority 2004, dated 2009)
